The text below walks through data of publication PMC4654935.

For assay [1], the target named is Rab8A S111A (recombinant) (human) (UniProt P61006).
The target in assay [2] is Rab8A S111E (recombinant) (human) (UniProt P61006).
The target in assay [3] is Rab8A wild-type (recombinant) (human) (UniProt P61006).

B1: Rabin8(153-237) (domain or fragment)
chain: VREKGYERLKEELAKAQRELKLKDEECERLSKVRDQLGQELEELTASLFEEAHKMVREANIKQATAEKQLKEAQGKIDVLQAEVA
Turning to B1, the values for the k cat/K M of Rabin8-catalysed mantGDP release from Rab8A (1 uM Rab, 100 uM GDP, 0.5 uM Rabin8, 25°C) in assay [1], in assay [2] and in assay [3] were 87000 M⁻¹ s⁻¹, 7600 M⁻¹ s⁻¹ and 100000 M⁻¹ s⁻¹, respectively.
